B1: YK-RSV-016 (protein)
chain: QNITEEFYCSTCSAVSKGYLGALRTGWYTSVILIELSNIKENKCNGTDAKVKLIKQELDKYKNAVTDLQLLMQSTPATGSGSAICSGVAVSKVLHLEGEVNKIKSALLSTNKAVVSLSNGVSVLTFKVLDLKNYIDKQLLPIVNKQSCSIPNIETVIEFQQKNNRLLEITREFSVNAGVTTPVSTYMLTNSELLSLINDMPITNDQKKLMSNNVQIVRQQSYSIMSIIKEEVLAYVVQLPLYGVIDTPCWKLHTSPLCTTNTKEGSNICLTRTDRGWYCDNAGSVSFFPQAETCKVQSNRVFCDTMNSRTLPSEVNLCNVDIFNPKYDCKIMTSKTDVSSSVITSLGAIVSCYGKTKCTASNKNRGIIKTFSNGCDYVSNKGVDTVSVGNTLYCVNKQEGQSLYVKCEPIINFYDPLVFPSSEFDASISQVNEKINQSLAFIRKSDELLHNVNAGKSTTNIMITTIIIVIIVILLSLIAVGLLLY
B2: YK-RSV-029 (protein)
chain: QNICEEFYQSTCSAVSKGYLGALRTGWYTSVITIELSNIKENKCNGTDAKVKLIKQELDKYKNAVTDLQLLMQSTPATGSGSAIASGVAVSKVLHLEGEVNKIKSALLSTNKAVVSLSNGVSVLTFKVLDLKNYIDKQLLPILNKQSCSIPNIETVIEFQQKNNRLLEITREFSVNAGVTTPVSTYMLTNSELLSLINDMPITNDQKKLMSNNVQIVRQQSYSIMSIIKEEVLAYVVQLPLYGVIDTPCWKLHTSPLCTTNTKEGSNICLTRTDRGWYCDNAGSVSFFPQAETCKVQSNRVFCDTMNSRTLPSEVNLCNVDIFNPKYDCKIMTSKTDVSSSVITSLGAIVSCYGKTKCTASNKNRGIIKTFSNGCDYVSNKGVDTVSVGNTLYYVNKQEGCSLYVKGEPIINFYDPLVFPSDEFDASISQVNEKINQSLAFIRKSDELLHNVNAGKSTTNIMITTIIIVIIVILLSLIAVGLLLY
B3: YK-RSV-019 (protein)
chain: QNITEEFYQSTCSAVSKGYLGALRTGWYTCVITIELSNIKENKCNGTDAKVKLIKQELDKYKNAVTDLQLLMQSTPATGSGSAICSGVAVSKVLHLEGEVNKIKSALLSTNKAVVSLSNGVSVCTFKVLDLKNYIDKQLLPIVNKQSCSIPNIEIVIEFQQKNNRLLEITREFSVNAGVTTPVSTYMLTNSELLSLINDMPITNDQKKLMSNNVQIVRQQSYSIMSIIKEEVLAYVVQLPLYGVIDTPCWKLHTSPLCTTNTKEGSNICLTRTDRGWYCDNAGSVSFFPQAETCKVQSNRVFCDTMNSRTLPSEVNLCNVDIFNPKYDCKIMTSKTDVSSSVITSLGAIVSCYGKTKCTASNKNRGIIKTFSNGCDYVSNKGVDTVSVGNTLYCVNKQEGQSLYVKGEPIINFYDPLVFPSSEFDASISQVNEKINQSLAFIRKSDELLHNVNAGKSTTNIMITTIIIVIIVILLSLIAVGLLLY

Assays:
[1] = test system: RSV pre-F antibody (3C12); experiment: Binding of epitope Φ of RSV F antigen mutants by flow cytometry; conditions: for RSV pre-F antibody (3C12) Epitope Φ (%) binding rate: flow cytometry; for Φ/II (%): ratio of epitope Φ (3C12) to epitope II (11A9) binding rate
Source text: (§1) To investigate whether the RSV F antigen mutants have pre-fusion epitopes, an RSV pre-F antibody (3C12) (specifically binding to the RSV pre-F epitope […]) and an RSV F antibody (11A9) (binding to pre-F and post-F epitopes II) were detected by flow cytometry in this example, and RSV F protein mutants in the pre-F conformation were expected to bind to the antibodies tested.
(§2) • 293T cells (purchased from ATCC cell bank); RSV pre-F antibody (3C12), epitope […] (Novoprotein, Cat. No.: DA101); RSV F antibody (11A9), epitope II (Novoprotein, Cat. No.: DA091); • experimental groups: mRNA vaccines corresponding to the expressed antigens in Example 3;
(§3) • (1) Cell transfection: 293T cells were seeded at 1.3×10^5 cells/well in a 24-well plate. The next day, mRNA-LNP samples (containing 300 ng of mRNA) were added directly to the cells, and the mixture was uniformly mixed. • (2) Cell collection: The cells were taken out of the incubator after 16 h of transfection, the medium was pipetted off, 500 μL of 0.1% BSA solution was pipetted to wash the medium remaining in the well plate, taking care not to resuspend the cells, and the 0.1% BSA solution was pipetted off. 500 μL of 0.1% BSA solution was added to each well, and the cells were pipetted and transferred to a 1.5 mL centrifuge tube. • (3) Centrifugation: The cells were harvested by centrifugation at 400 g for 5 min at 4° C. in the dark, and the supernatant was discarded. • (4) Straining: 50.6 μL of RSV fluorescent antibody diluent was added to each of the control sample and the test samples to resuspend the cells, and the samples were incubated at 4° C. for 2 h in the dark. • (5) Cleaning: After the incubation was completed, 500 μL of 0.1% BSA solution was added to each tube, the cells were harvested by centrifugation at 400 g for 5 min at 4° C. in the dark, and the supernatant was discarded. This operation was repeated three times. • (6) Resuspension of cells: 200 μL of 0.1% BSA solution was added to each sample, and the cells were carefully pipetted to prepare a cell suspension. • (7) Detection on flow cytometer: The […] of RSV F mutants to antibodies were measured using flow cytometry, with 1×10^4 cells detected in each measurement.
(§4) The RSV pre-F antibody (3C12) used in this example specifically binds to the RSV pre-F epitope Φ, and the RSV F antibody (11A9) binds to the pre-F and post-F epitopes II. Whether the pre-fusion conformations of the RSV F mutants are stable can be further determined by detecting the binding of the epitope Φ and the epitope II on the mutants to corresponding epitopes of antibodies 3C12 and 11A9, respectively, by flow cytometry.

[2] = test system: RSV F antibody (11A9); experiment: Binding of epitope II of RSV F antigen mutants by flow cytometry; conditions: epitope II, antibody 11A9
Source text: as §1, §2, §3, §4

[3] = test system: RSV pre-F antibody (3C12); format: physicochemical; conditions: ELISA binding to 3C12; for Stress resistance parameter, Osmotic pressure (mM) 3000: high osmotic pressure 3000 mM; for Stress resistance parameter, Osmotic pressure (mM) 3000 / Stress resistance parameter, Osmotic pressure (mM) 10: room temperature; for Stress resistance parameter, Osmotic pressure (mM) 3000 / Stress resistance parameter, Osmotic pressure (mM) 10 / Stress resistance parameter, pH 3.5 / Stress resistance parameter, pH 10: 60 min; for Stress resistance parameter, Temperature (° C.) 50: incubation at 50° C. for 60 min; for Stress resistance parameter, Osmotic pressure (mM) 10: low osmotic pressure 10 mM; for Stress resistance parameter, pH 3.5: pH 3.5, room temperature; for Stress resistance parameter, pH 10: pH 10, room temperature; for Stress resistance parameter, Temperature (° C.) 4: storage at 4° C. for one week
Source text: To investigate the stability of the RSV F antigen mutants under different pH, temperature, osmotic pressure and other conditions, the mutants were subjected to stress tests under different treatment conditions in this example.
• 293T cells (purchased from ATCC cell bank); • Primary antibody: RSV pre-F antibody (3C12), epitope Φ (purchased from Suzhou Novoprotein Scientific Co., Ltd. (hereinafter referred to as Novoprotein), Cat. No.: DA101); • Standard: RSV pre-F trimer protein (Novoprotein, Cat. No.: DRA230); • Secondary antibody: peroxidase AffiniPure goat anti-human IgG (H+L) (purchased from Yeasen Biotechnology (Shanghai) Co., Ltd. (hereinafter referred to as Yeasen), Cat. No.: N/A); • Experimental group: mRNA vaccines after screening in Example 4;
Coating: A 96-well microplate was coated with a working solution and incubated at 2 to 8° C. for 16 to 20 h.
Plate washing: Phosphate buffered saline PBST was added to each well, and the plate was washed 5 times using a plate washer and patted dry on absorbent paper.
Blocking: After a blocking solution was added, the […] were placed on a constant temperature microplate shaker and incubated at 400 rpm for 1.5 h at 37° C.
Plate washing: PBST was added to each well, and the plate was washed 5 times using a plate washer and patted dry on absorbent paper.
Primary antibody incubation: A primary antibody dilution was added to each well, and the plate was sealed with a sealing film, and then incubated at 400 rpm for 1.5 h at 37° C.
Secondary antibody incubation: A secondary antibody dilution was added to each well, and the plate was sealed with a sealing film, and then incubated at 400 rpm for 45 min at 37° C.
Color development: A chromogenic solution was added, and the plate was sealed with a sealing film, and then placed on a constant temperature microplate shaker and incubated at 400 rpm for 25 min at 37° C.
Reaction stopping: After the color development was completed, a stop buffer was added at […] to the microplate to stop the reaction.
Plate reading: Absorbance values (OD values) were read within 5 min using a multimode microplate reader, with dual wavelengths of 450 nm and 630 nm set.
In this example, stability screening of the mutants through different treatment conditions was defined as a stress test, including storage at 4° C. for one week; incubation at 50° C. for 60 min; treatment at room temperature under low osmotic pressure and high osmotic pressure conditions for 60 min; treatment at room temperature under acid and base conditions for 60 min. The binding of the mutants to the RSV pre-F antibody (3C12) recognizing the epitope Φ was detected by ELISA.

Molecule	RSV pre-F antibody (3C12) Epitope Φ (%) binding rate [1] [%]	Φ/II (%) [1] [%]	RSV F antibody (11A9) Epitope II (%) binding rate [2] [%]	Stress resistance parameter, Osmotic pressure (mM) 3000 [3]	Stress resistance parameter, Temperature (° C.) 50 [3]	Stress resistance parameter, Osmotic pressure (mM) 10 [3]	Stress resistance parameter, pH 3.5 [3]	Stress resistance parameter, pH 10 [3]	Stress resistance parameter, Temperature (° C.) 4 [3]
B1	79.8	95.7	83.4	0.53 ± 0.07	0.80 ± 0.01	0.77 ± 0.08	0.91 ± 0.06	0.98 ± 0.14	0.28 ± 0.05
B2	79.6	91.8	86.7	0.40 ± 0.01	0.57 ± 0.08	0.61 ± 0.05	0.63 ± 0.03	0.82 ± 0.01	0.32 ± 0.06
B3	84.5	93.5	90.4	0.63 ± 0.04	0.58 ± 0.05	0.81 ± 0.04	0.77 ± 0.05	0.88 ± 0.09	0.37 ± 0.08

From patent US12514920B1, “Respiratory syncytial virus mRNA vaccine, and preparation method therefor and use thereof” (Hangzhou Tianlong Pharmaceutical Co., Ltd., priority 2024, dated 2026)
